assay: soluble on expression in E. coli; label from the status in PepcDB or PDB records

| Sequence | soluble on expression in E. coli |
| --- | --- |
| MMLEQLIQLKQDLIDGSKVEKPSLDDKQIDEMDILVSEALEFNKELKFKLFNKGFVENVTGRVHYINFEQQKLHVKDQNDNTVYINMNNIIRVIYND | not soluble |
| MNAYCLTLNDTNIAIEKKDIKHLHISVCPPDGSVHVSCPLALNDESLRLSLIKRLHWIKEQQQNFLNQNRQSQRGMLERESHYLFGKRYLLKIEHTTKKHFVLQNPKYLILHVHQKTSLENRLKVLENYYRQVLREKIQTCINRYEKILNESIQSFKIQKMKRIWGSCNIAKRALLFNLELAKVPRKGIEYVVVHELLHLKTRHHNEYFRDLLSLYLPNWQRAKASLKETYLERSLEHHHHHH | not soluble |
| REGITKNPTKRIIKDVETVDYPEKLIVPYIDTVHDRIVLELFRGCTRGCRFCQAGMIYRPIREKSVKRLKEILDKLVKNTGYDEISLSSLSTSDYSKLSELTDYLVDEYASNNIGISLPSLRLDNFSMEIADKIQQVRKSGLTFAPEAGTQRLRDVINKGVTEEDLENATERAFEMGWNSVKLYFMIGLPTETYEDLDGIAKLAYKV | not soluble |
| MNIAALLSGGVDSSVVVHLLCEQGYKPTLFYIKIGMDGAEYMDCSAEEDIEMSTAIARKYGLSLEVVDLHKEYWENVAAYAIDKIKKGLTPNPDVMCNKLIKFGCFEQQVGKNFDFTATGHYATTIRQDGKTWLGTAKDPVKDQTDFLAQIDYLQVSKLMFPIGGLMKQEVREIASRAGLPSARRKDSQGICFLGKINYNDFVRRFLGEREGAIIELETGKKVGTHRGYWFHTIGQRKGLGLSGGPWFVIKKDVEENIIYVSHGYGVETQFGSEFRINDFHFITENPWKDAGKEIDITFKIRHTPEFTKGKLVQEEGGQFRILSSEKLQGIAPGQFGVIYDEEAGICVGSGEITRLEHHHHHH | soluble |
| MSLKTITTFENKKVLVLGLARSGEAAARLLAKLGAIVTVNDGKPFDENPTAQSLLEEGIKVVCGSHPLELLDEDFCYMIKNPGIPYNNPMVKKALEKQIPVLTEVELAYLVSESQLIGITGSNGKTTTTTMIAEVLNAGGQRGLLAGNIGFPASEVVQAANDKDTLVMELSSFQLMGVKEFRPHIAVITNLMPTHLDYHGSFEDYVAAKWNIQNQMSSSDFLVLNFNQGISKELAKTTKATIVPFSTTEKVDGAYVQDKQLFYKGENIMSVDDIGVPGSHNVENALATIAVAKLAGISNQVIRETLSNFGGVKHRLQSLGKVHGISFYNDSKSTNILATQKALSGFDNTKVILIAGGLDRGNEFDELIPDITGLKHMVVLGESASRVKRAAQKAGVTYSDALDVRDAVHKAYEVAQQGDVILLSPANASWDMYKNFEVRGDEFIDTFESLRGEGHHHHHH | soluble |
| MALKTDIRGMIWRYPDYFIVGREQCREFARAVKCDHPAFFSEEAAADLGYDALVAPLTFVTILAKYVQLDFFRHVDVGMETMQIVQVDQRFVFHKPVLAGDKLWARMDIHSVDERFGADIVVTRNLCTNDDGELVMEAYTTLMGQQGDGSARLKWDKESGQVIRTALEHHHHHH | not soluble |
| SVDDSKYQCVKLNDGHFMPVLGFGTYAPAEVPKSKALEAVKLAIEAGFHHIDSAHVYNNEEQVGLAIRSKIADGSVKREDIFYTSKLWSNSHRPELVRPALERSLKNLQLDYVDLYLIHFPVSVKPGEEVIPKDENGKILFDTVDLCATWEAMEKCKDAGLAKSIGVSNFNHRLLEMILNKPGLKYKPVCNQVECHPYFNQRKLLDFCKSKDIVLVAYSALGSHREEPWVDPNSPVLLEDPVLCALAKKHKRTPALIALRYQLQRGVVVLAKSYNEQRIRQNVQVFEFQLTSEEMKAIDGLNRNVRYLTLDIFAGPPNYPFSDEY | soluble |
| MSLAQTPVMDVGTKSYISHQEQKMTATVEQIESWIVDVPTIRPHKLSMTTMGCQSLVIVRLTRSDGICGIGEATTIGGLSYGVESPEAISSAITHYLTPLLKGQPADNLNALTARMNGAIKGNTFAKSAIETALLDAQGKALGLPVSALLGGALQTALPVLWTLASGDTAKDIAEGEKLLAEGRHRAFKLKIGARELATDLRHTRAIVEALGDRASIRVDVNQAWDAATGAKGCRELAAMGVDLIEQPVSAHDNAALVRLSQQIETAILADEAVATAYDGYQLAQQGFTGAYALKIAKAGGPNSVLALARVAQAAGIGLYGGTMLEGTVGTVASLHAWSTLPLQWGTEMFGPLLLKDDIVSVPLTFADGQVALPQTPGLGVELDEDKLHFYTRQEGHHHHHH | soluble |
| MSLEDQALFGYARYGKVDDVVYPSVIASGNGINYGDSDIEILGDRIPRQILYPAKIKQEILETDKLVIIPNGAELVRKPKDLVRIIMDIHSRYGFSKLIMISGISDPYSIPALVYLGISFFDSSILEMEGKMGYRFTPFGIEKADHDVSSENAIFISDMMHIIQRSISDGTLRELIEKAVISSKAAEMVRIADYSYYQDFESVFPVRTPYIKANTIEDLYRPDLIRYRNYISESYVKPDADIALILPCSAKKPYSRSKSHQKVIGALGNLRRFIHEVIVTSPIGIVPRDLEETYPARFYDIPVIGLWYEDEKIMMKRMMSSYMGRNRYRKVIAFIPEDLDFITEAIPYPHEVIEFKSSNLQRLREVIQREIAGGKAVNQKVAKYNSILRYQFGEWILPLVSGYTIRRNYNQDMIVKDGKILFVYNENLGKFTINKASADMFIKNGKFLVEIDDFKPTSNVYAMGVVDATEDIRQEDEVVLVHSGEVRGVGIAKMPARAMIELKKGIAVKVREGHHHHHH | soluble |
| MGARKASAGASRAATAGVRISHPQRLIDPSIQASKLELAEFHARYADLLLRDLRERPVSLVRGPDGIGGELFFQKHAARLKIPGIVQLDPALDPGHPPLLQIRSAEALVGAVQMGSIEFHTWNASLANLERPDRFVLDLDPDPALPWKRMLEATQLSLTLLDELGLRAFLKTSGGKGMHLLVPLERRHGWDEVKDFAQAISQHLARLMPERFSAVSGPRNRVGKIFVDYLRNSRGASTVAAYSVRAREGLPVSVPVFREELDSLQGANQWNLRSLPQRLDELAGDDPWADYAGTRQRISAAMRRQLGRG | soluble |
| MSLRAPRRSNADGLSENVLKAILEPAAAYMAETQKMKEEGNENGGSENTNIDQRNQLLQQASQRGSIGSFLDTTSLSTCSKRSLHSSRLTLSDSKEFYKTVGCRWIRSVRHGDVSTVKKMLEENSELVNYAPTYGPLALHLAAARSDRSIILLLLAKGAEVDSRDAAGYTCLQLAIRRGNQSLAHFLILQGANIELIDPDGRGIIDYDGWSGEDQRSAEKHFYGKIILRPKAHSFVGSPSSISMKSSKSTRTMRPSSTPNDSMISEYESSNLKRNEKQRSSWMSFFKSHTIFGSNSKS | not soluble |
| MAHHHHHHMSGAGRKHRAKHLTQQYLDASGWVGPKEGERLAICMESPHGQHVRVLLLVHPNSAPASSSTEAPAPDGSSSSDAPHGAKESEAGVSASPPSAAPLLEVEQVVHLPRKFHKVIWLSIKDVVVIADGTVSFKPSPEQVESFLKDPRNKGWRERVATAQHRAEDQRAALQRMPHYAATAQTTTSVLTGPQVRSGVRATANGTSEQDSEGSEGEADDMRNPNWRNIKHQQHFFYGLGDDSDEIEEEEDA | not soluble |
| KEMRQQVPATIKGPTEEYEYYMELMALLNNLLETARSRGFKFLDSHIEAPEQSSIFLMYPLVSEDHRLISFITDNLRLMAMGQMSPHELEGLLEQEIEAIQNELLLPSRSLQRTAE | not soluble |
| MSYLRALFFVLAMLATFGSMAGEPAHSDSGRDQVIRQILSDFWGNAKDVHGNAIQPASQEDRATVPISRAAAYRALEAGNLSGLAEWCGLDWEQHYLGLTEEARKMGMLDKQVAFFSVLHGAGQGAMVGSRSGQTCTAKQRTRIETLLLESQKEGLPSDALNGWQ | not soluble |
| MSEQLTDQVLVERVQKGDQKAFNLLVVRYQHKVASLVSRYVPSGDVPDVVQEAFIKAYRALDSFRGDSAFYTWLYRIAVNTAKNYLVAQGRRPPSSDVDAIEAENFESGGALKEISNPENLMLSEELRQIVFRTIESLPEDLRMAITLRELDGLSYEEIAAIMDCPVGTVRSRIFRAREAIDNKVQPLIRR | not soluble |
| MGSDKIHHHHHHMDSFHSFNQHAFNRHAKTYHLFAHIQQQIAICLVQFLKQKHYAKVLDLGSGSGAVFNALERQNILIEEFIALDNSINMLKLHPTHSINIQKISLEHADFEEHVFCTYDLVVSSSSLQWARDLKSVLEKIALSSKEVALAIHTDFSLHEVHEFLGTPSPLRDLKTLKSLIKNAFKHFQIELENKRFALYFNRKQDCLNYLKKCGLLGGSTLSFKQKKHFFQNMAFEKLSYEVLLFSGIKRS | not soluble |
| MGSDKIHHHHHHMKKNILHIHGFNSSPLSLKAEQTRKYMAKNFPNVGFYCPQLATTPANAMSQLEQLIETHDSNAKWYLIGSSLGGYFAHYLAKKYDCLAVLVNPAITPYELLHDYIGEQVNPYTEEVYQVTEDHMQQLKALEQTAPTIDCTEKNNYLVMVQTGDEVLNYQQAVEKYQYCRLIVQEGGDHSFINFDNCLPTISDFFQLDNTKRINSR | not soluble |
| MSYSSQGVVEKGKVMPGDVLATIEEFLPGEGVYVDPVKGFIRAAAPGVAYLDMSRRIAYVKPHKKPQTPGPGSEVAALVTGVRGDLVVAEVYGVVRLSPKPAWLYELPSPYSAAIPISQIADEYIKNIEDYYRMGDWILAKIVSRTPPFTLSTVEPRYGVVYAICSRCGAVMEFQSERSMKCPKCGNVEKRKVSIHAKSRHLRIRLVRNLVIYRS | soluble |
| DGTSQLAELVDAAAERLEVADPVAAFKWRAQLPIEDSGRVEQQLAKLGEDARSQHIDPDYVTRVFDDQIRATEAIEYSRFSDWKLNPASAPPEPPDLSASRSAIDSLNNRMLSQIWSHWSLLSAPSCAAQLDRAKRDIVRSRHLDSLYQRALTTATQSYCQALPPA | soluble |
| MGSDKIHHHHHHMVVNESMYQLGSVRSAIRELFEYGKKRAAIVGKENVYDFSIGNPSIPAPQIVNDTIKELVTDYDSVALHGYTSAQGDVETRAAIAEFLNNTHGTHFNADNLYMTMGAAASLSICFRALTSDAYDEFITIAPYFPEYKVFVNAAGARLVEVPADTEHFQIDFDALEERINAHTRGVIINSPNNPSGTVYSEETIKKLSDLLEKKSKEIGRPIFIIADEPYREIVYDGIKVPFVTKYYDNTLVCYSYSKSLSLPGERIGYVLVPDEVYDKAELYAAVCGAGRALGYVCAPSLFQKMIVKCQGATGDINAYKENRDLLYEGLTRIGYHCFKPDGAFYMFVKALEDDSNAFCEKAKEEDVLIVAADGFGCPGWVRISYCVDREMIKHSMPAFEKIYKKYNK | not soluble |
| MDTQKLIEVLAREVLKEIAKRENQKLSENNEIISKKSVVTAFLGNDEVLKDELKKEASFMENIKLDSTWEEIGQCENKKRLVVSTLGINELIELSQGRKSVITEFLFNDGEVVLVEEGLEYKKYTKPAALINLYDGYLDKVREFGIKVVKRTEVKNVFCTKEKVYLKGLVTERRLRKLKLKNQTLEVDAKSKITSLAMDYIKENSIELCYERRQ | not soluble |
| MGSDKIHHHHHHVSQPTSSLVGKSRASIYRDLVLSAQGVRFGKTAGKDVDVIKYLFALLILLAFSAKGYHPKEAHEPLTTLAVDAMAQCGINLSESTRLQLMQGNLAMDEGAGKLPKELMNTSFAKAVFPMTKRIHNWHFYHPDKTADAQRLAGKTDMSMARLWQAAQAGLEQAPAEHKAYYLGAIIHLIQDVTVPAHAVPVYHGPKIIAWQREFAPLVNYLGFGFRGIFVIHDPVDDWPVNSTGAEQPIAAIPCPELHAASSNLSANFDALRTRVARQTLTALDNPIPGCAAPWRLFWREDLGHRYFAGYTQGIKPFGRANSLSGEGISIDGRPCEPDYQGFVETRHRAAIEATMAALQLSQLGVVSPVPTEAQ | not soluble |
